The values that follow come from the nanobody polyreactivity screen of Harvey et al. (2022).

The data set is described as follows: yeast display, Sf9 membrane polyspecificity reagent, FACS + sequencing; frameworks hold sequencing errors. The procedure, abridged:
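Genes from sorted yeast were amplified by colony PCR, read by MiSeq 2 × 250 sequencing and filtered on CDR length. These cells carried a synthetic nanobody library in Saccharomyces cerevisiae BJ5465 and were sorted by FACS into low and high (top ~1%) gates on anti-HA and streptavidin fluorescence. Polyreactivity is labelled according to the gate of origin.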
For “QVQLVESGGGLVQAGGSLRLSCAASGFIFGYNAMGWDRQAPGKERELVAAITRSGGRTYYADSVKGRFTISRDNAKNTVSLQMNSLKPEDTAVYYCAASRFATYPRWYDYWGQGTQVTVSS”, the “polyreactivity (PSR sort gate)” value is on record as “low polyreactivity”. Regarding “QVQLVESGGGLVQAGGSLRLSCAASGFIFGYNAMGWYRQAPGKERELVAAISTRGGSTYYADSVKGRFTISRDNAKNTVYLQMNSLKPEDTAVYYCNKVTRVPFDSWGQCTQVTVSS”, the “polyreactivity (PSR sort gate)” value is on record as “high polyreactivity”.

Regarding “QVQLVESGGGLVQAGGSLRLSCAASGFIFGYNAMGWYRQSPGKERELVAAISTRGGSTYYADSVKGRFTISRDNAKNTVYLQMNSLKPEDTAVYYCNKVTRVPFDSWGQGTQVTVSS”, the “polyreactivity (PSR sort gate)” value is recorded as “high polyreactivity”. As for “QVQLVESGGGLVQAGGSLRLSCAASGFIFGYNDMGWYRQAPGKERELVAAINSGGSTYYADSVKGRFTISRDNAKNTVYLQMNSLKPEDTAVYYCAADYGYFEYDYWGQGTQVTVSS”, the “polyreactivity (PSR sort gate)” value was “low polyreactivity”. As to “QVQLVESGGGLVQAGGSLRLSCAASGFIFGYNVMGWYIQAPGKERELVASISTGGRTYYADSVKGRFTISRDNAKNTVYLQMYSLKPEDTAVYYCAARYRSYSYLYYSWGQGTQVTVSS”, the “polyreactivity (PSR sort gate)” value is on record as “high polyreactivity”. As for “QVQLVESGGGLVQAGGSLRLSCAASGFIFGYYAMGGYRQAPGKERELVAAISSSGTRTYYADSVKGRFTISRDNAKNTVYLQMNSLKPEDTAVYYCAVTTAYSGAFYTGEYWGQGTQVTVSS”, the “polyreactivity (PSR sort gate)” value is reported as “high polyreactivity”. As to “QVQLVESGGGLVQAGGSLRLSCAASGFIFGYYAMGWYRKAPGKERELVAAITSGDGSTYADSVKGRFTISRDNEKNTVYLQMNSLKPEDTAVYYCAAVFRYYTYSGAVRYYYWGQGTQVTVSS”, the “polyreactivity (PSR sort gate)” value was “high polyreactivity”. As to “QVQLVESGGGLVQAGGSLRLSCAASGFIFGYYAMGWYRQAPGKERDLVAAITSGTGTNYADSVKGRFTISRDNAKISVYLQMIRLKPEDTAVYYCAAYYTWLSEFGYWGQGTQVTVSS”, the “polyreactivity (PSR sort gate)” value is “low polyreactivity”. For “QVQLVESGGGLVQAGGSLRLSCAASGFIFGYYAMGWYRQAPGKERELVAAISWSGVSTYYADSVKARFTISRDNAKNTVSLQMNSLKREDTAVYYCAFGYVLTGVFQARFDYWGQGTQVTVSS”, the “polyreactivity (PSR sort gate)” value is reported as “high polyreactivity”. For “QVQLVESGGGLVQAGGSLRLSCAASGFIFHEYAMGWSRQAPGKERELVAAISSGGGSTYYADSVKGRFTISRDNANNTVYLQMNSLKPEDTAVYYCAADATAYSVLTRDYWGQGTQVTVSS” the value was “high polyreactivity”. Regarding “QVQLVESGGGLVQAGGSLRLSCAASGFIFHTNTMGWYRQAPGKERELVAAISSGGRTNYADSVKGRFTISRDNAKNTVYLQMNSLKPEDTAVYYCAARVGSGFDSWGQGTQVTVSS”, the “polyreactivity (PSR sort gate)” value is “high polyreactivity”.

“QVQLVESGGGLVQAGGSLRLSCAASGFIFHYYAMGWYRQAPGKERELVAAISKTGGSTYYADSVKGRFTISRDNAKNTVYLQMNSLKPEDTAVYYCAVARSAYYRGNHWGQGTQVTVSS”: the “polyreactivity (PSR sort gate)” value is “high polyreactivity”. As for “QVQLVESGGGLVQAGGSLRLSCAASGFIFIAYTMGWYRQAPGKERELVAAISSRGGRTYYADSVKGRFTISRDNAKNTVYLQMNSLKPEDTAVYYCAASYTYYSFGFGTDVRYGYWGQGTQVTVSS”, the “polyreactivity (PSR sort gate)” value is “high polyreactivity”. As for “QVQLVESGGGLVQAGGSLRLSCAASGFIFIRYAMGWYRQAPGKERELVAAISASGVRTYYADSVKGRFTISRDNAKNTVYLQMNSLKPEDTAVYDCAVRSAWVYGIGRYYWGQGTQVTVSS”, the “polyreactivity (PSR sort gate)” value is recorded as “high polyreactivity”. For “QVQLVESGGGLVQAGGSLRLSCAASGFIFIYNAMGWYRQAPGKERELVASITSGGGSTYYADSVKGRFTISRDNAKNTVYLQMNSLKPEDTAVYYCAKQDAVQGAEASGEYDYWGQGTQVTVSS”, the “polyreactivity (PSR sort gate)” value is “low polyreactivity”.

Turning to “QVQLVESGGGLVQAGGSLRLSCAASGFIFKFYAMGWYRQAPGKETELVAAISKSGGRTYYADSVKGRFTISRDNAKNSVYLQMNSLKPEDTAVYYCNAPSVGAAFDYWGQGTQVTVSS”, the “polyreactivity (PSR sort gate)” value was “high polyreactivity”.

For the sequence “QVQLVESGGGLVQAGGSLRLSCAASGFIFKHYAMGWYRPAPGKERELVAAITRSGGRTYYADSVKGRFTISRDYAKNTVYLQMNSLKPEDTAVYYCNVDGKKRHYRHYYLSAYDYWGQGTQVTVSS”, the “polyreactivity (PSR sort gate)” value is “high polyreactivity”.

In the case of “QVQLVESGGGLVQAGGSLRLSCAASGFIFKIYAMGWYRQAPGKERELVAAISSGDNTNYADSVKGRFTISRDNAKNTVYLQMNSLKPEDNAVYYCAALRYTYLGQLQWSRSGRYDYWGQGTQVTVSS”, the “polyreactivity (PSR sort gate)” value is “high polyreactivity”. For “QVQLVESGGGLVQAGGSLRLSCAASGFIFKLYAMGWYRQAPGKERELVAAIRSSGGSTYYADSVKGRFTISRDNAKNTVYLQMNSLKPEDTAVYYCAKVGGRVRYNYWGQGTQVTVSS”, the “polyreactivity (PSR sort gate)” value is “high polyreactivity”. For “QVQLVESGGGLVQAGGSLRLSCAASGFIFKRYAMGWYRQAPGKERELVATISNSGGRTYYADSVKGRFTISRDNAKNTVYLQINSLKPEDTAVYYCDALPFWWGGYWGQGTQVTVSS” the value was “high polyreactivity”.

On to “QVQLVESGGGLVQAGGSLRLSCAASGFIFKRYAMGWYRQAPGKERELVAVITRSGGSTYYADSVKGRFTISRDNAKNTVYLQMNSLKPEDTAVYYCAVDFTDRGYDYWGQGTQVTVSS”, for which the “polyreactivity (PSR sort gate)” value was “high polyreactivity”.

With “QVQLVESGGGLVQAGGSLRLSCAASGFIFKSYAMGWYRQAPGKETELVAAISRSGSSTYYADSVKGRFTISRDNAKNTVYLQMNSLKPEDTAVYYCAKKGYRFIHFGYDYWGQGTQVTVSS”, the “polyreactivity (PSR sort gate)” value was “high polyreactivity”. As to “QVQLVESGGGLVQAGGSLRLSCAASGFIFKYYAMGWYRQAPGKERELVAAISRRGGSTFYADSVKGRFTISRDNAKNTVYLQMNSLKPEDTAVYYCAAYYYYSAYGDDYWGQGTQVTVSS”, the “polyreactivity (PSR sort gate)” value was “high polyreactivity”.

Consider “QVQLVESGGGLVQAGGSLRLSCAASGFIFLFYAMGWYRQAPGKERELVAAISSGVSTNYADSVKGRFTISRDNAKNTVYLQMNSLKPEDTAVYYCNTTQSTSLLYDYWGQGTQVTVSS”, for which the “polyreactivity (PSR sort gate)” value is recorded as “low polyreactivity”. Regarding “QVQLVESGGGLVQAGGSLRLSCAASGFIFLIYAIGWYRQAPGTERELVATIRYSGGRTYYADSVKGRFTISRDNAKNTVYLQMNSLKPEDTAVYYCAARSVWFSGQGRMNYWGQGTQVTGSS”, the “polyreactivity (PSR sort gate)” value is reported as “high polyreactivity”. “QVQLVESGGGLVQAGGSLRLSCAASGFIFLPNDMGWYRQAPGKEREFVAAIDWSGGSTYYADSVKGRFTISRDNAKNTVYLQMNSLKPEDTAVYYCNAEGRRVGFRIDYDYWGQGTQVTVSS”: the “polyreactivity (PSR sort gate)” value is “low polyreactivity”. With “QVQLVESGGGLVQAGGSLRLSCAASGFIFLPYAMGWYRQEPGKERELVAAITRGGRTYYADSVKGRFTISRDNAKNTVSLQMNSLKPEVTAVSYFAATPYLFWGYNYWGQGTQVTVSS”, the “polyreactivity (PSR sort gate)” value is on record as “low polyreactivity”. For “QVQLVESGGGLVQAGGSLRLSCAASGFIFLSNAMGWYRQAPGKERELVAAITSGGSTNYADSVKGRFTISRDNAKNTVYLQMNSLKPEDTAVYYCAARAPQWTFALGRWDRDYWGQGTQVTVSS” the value was “low polyreactivity”; for “QVQLVESGGGLVQAGGSLRLSCAASGFIFLSNGMVWYRQAPGKERELVAAISSSGGSTYYADSVKGRFTISRDTAKNTVYLQMNSLKPEDTAVYYCAKDNGPWFAYDYWGQGSQVTVSS”, “low polyreactivity”. For the sequence “QVQLVESGGGLVQAGGSLRLSCAASGFIFLYNAMGWYRPAPGKERQLVAAITSSGATTYYADSVKGRFTISRDNAKNTDYLQMNSLKPEDTAVYYCAARYTGRNGGSTTPEYDYWGQGTQVTVSS”, the “polyreactivity (PSR sort gate)” value is “low polyreactivity”. Next, “QVQLVESGGGLVQAGGSLRLSCAASGFIFLYNTMGWYRQAPGKERELVAAISGGGGSTSYADSVKGRFTISRDNAKNTVYLQMNSLKPEDTAVYYCAKKSTYYKWSRMYWGQGTQVTVSS”: “high polyreactivity”; “QVQLVESGGGLVQAGGSLRLSCAASGFIFLYYAMGWYRPAPGKEGELVAAISRSGGRTYYADSVKGRFTISRDNAKNTVYLQMNSLKPEDTAGYYCAARSARTSSFPIFYYWGQGTQVTVSS”: “high polyreactivity”; “QVQLVESGGGLVQAGGSLRLSCAASGFIFLYYAMGWYRQAPGKERELVADISRGADTKYADSVKGRFTISRDNAKNTVYLQMNSLKPEDTAVYYCATDITTFWVPYPGVELGYWGQGTQVTVSS”: “low polyreactivity”.

Regarding “QVQLVESGGGLVQAGGSLRLSCAASGFIFNHYAMGWYRQAPGKEREFVAAISWSGGSTYYADSVKGRFTISRDNAKNTVYLQMNSLKPEDTAVYYCAASYNGLWHGDYDYWGQGTQVTVSS”, the “polyreactivity (PSR sort gate)” value is recorded as “low polyreactivity”. Regarding “QVQLVESGGGLVQAGGSLRLSCAASGFIFNKYAMGWYRPAPGKERELVARITSSGSRTYYADSVKGRFTISRDKAKNTVYLQMISLKPEDTAVYYCNTYYHWLTMDYWGQGTQVTVSS”, the “polyreactivity (PSR sort gate)” value is on record as “high polyreactivity”. As to “QVQLVESGGGLVQAGGSLRLSCAASGFIFNVNAMGWYRQAPGKEREFVAVSTYADSVKGRFTISRDNAKNTVYLQMNSLKPEDTAVYYCAATFVQPVYDYDYWGQGTQVTVSS”, the “polyreactivity (PSR sort gate)” value is listed as “low polyreactivity”. Consider “QVQLVESGGGLVQAGGSLRLSCAASGFIFNWYAMGWYRQAPGKERELVAVITSSGGSTYYADSVKGRFTISRDNAKNTVYLQMNSLKPDDTAVYYCNKKPGPAPNKYRITARYYYWGQGTQVTVSS”, for which the “polyreactivity (PSR sort gate)” value is recorded as “high polyreactivity”. With “QVQLVESGGGLVQAGGSLRLSCAASGFIFNYYTMGWYRQAPGKEREFVAAIRRSGTRTYYADSVKGRFTISRDNAKNTVYLQMNSLKPEDTAVYYCAARGTSPGHGTYTRTRGQRYYYWGQGTQVTVSS”, the “polyreactivity (PSR sort gate)” value is “high polyreactivity”. “QVQLVESGGGLVQAGGSLRLSCAASGFIFPDYAMGWYRQAPGKERELVAAISFRDGSTYYADSVKGRFTISRDNAKNTVYFQINSLKPEDTAVYYCNAGPQYDVHEYYYWGQGSQVTVSS”: the “polyreactivity (PSR sort gate)” value is given as “low polyreactivity”. For “QVQLVESGGGLVQAGGSLRLSCAASGFIFPFYAMGWYRQAPGKERELVAVIRTSSDRTYYADSVKGRFTISRDNAKNTVYLQMNSLKPEDTAVYYCAAETYRLFDYLGQGTQVTVSS”, the “polyreactivity (PSR sort gate)” value is “low polyreactivity”.

Turning to “QVQLVESGGGLVQAGGSLRLSCAASGFIFPGYAMGSYRQAPGKERELVAAISRRGGRTYYADSVKGRFTISRDNAKNTVYLQMNSLKPEDTAVYYCAAVVQSTQYICDYWGQGTQVTVSS”, the “polyreactivity (PSR sort gate)” value is on record as “high polyreactivity”.
